# Test results as given in the nanobody polyreactivity screen of Harvey et al. (2022).
# Assay: yeast display, Sf9 membrane polyspecificity reagent, FACS + sequencing; frameworks hold sequencing errors
# Procedure, shortened: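 After 36–48 hours of galactose induction, yeast (Saccharomyces cerevisiae BJ5465) displaying a synthetic nanobody library were stained at 4 °C for 1 hour with 10% biotinylated, detergent-solubilized Sf9 membrane reagent. Streptavidin microbeads enriched the stained cells before FACS sorting into low and high (top ~1%) gates on anti-HA and streptavidin fluorescence. Each clone's polyreactivity label reflects its gate of origin.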
row,Sequence,polyreactivity (PSR sort gate)
1,QVQLVESVGGLVQAGGSLRLSCAASGSNFRGYAMGWYRQAPGKERELVAAISWSGVSTYYADSVKGRFTISRDNAKNTVYLQMNSLKPEDTAVYDCAAGYSSAYLRFGYWGQGTQVTVSS,low polyreactivity
2,QVQLVESVGGLVQAGGSLRLSCAASGSTFADYVMGWYRQAPGKERELVAAITSSGGSTYYADSVNGRFTISRDNAKNTVYLQMNSLKPEDTAVYYCAAQQSPSVDYWGQGTQVTVSS,low polyreactivity
3,QVQLVESVGGLVQAGGSLRLSCAASGSTFGFNAMGWYRQAPGKERELVAAIRRSDSSTYYADSVKGRFTISRDNAKNTVYLQMNSLKPEDTAVYYCAADVWVSWLLFKYEYWGQGTQVTVSS,low polyreactivity
4,QVQLVESVGGLVQAGGSLRLSCAASGSTFGYYAMGWYRQAPGKERELVATITWSGGSTNYGDSVKGRFTISRDNEKNTVYLQMKSLKPEDTAVYYCAADLKYWYFGLAFIEVDYWGQGTQVTVSS,low polyreactivity
5,QVQLVESVGGLVQAGGSLRLSCAASGSTFIQYAMGRYRHAPGKERELVASNSRSAGSTYYADSVKGRFTISRDNAKNTVYLQMNSLKPEDTAVYYCAADSYYLGYYLGSYSWDYGYWGQGTQVTVSS,high polyreactivity
6,QVQLVESVGGLVQAGGSLRLSCAASGSTFPVYVMGWYRQAPGKERELVAAITRIGGSTYYADSVKGRFTISRDNAKNTVYLQMNSLKPEDTAVYYCAAGGTARDDSWGQGTQVTVSS,low polyreactivity
7,QVQLVESVGGLVQAGGSLRLSCAASGSTFQGNAMGWYIQAPGKERELVAAISRSGGSTYADSVKGRFTISRDNAKNTVYLQMNSLKPEDTAVYYCAAYSGVGYLWFDYWGLGTQVTVSS,low polyreactivity
8,QVQLVESVGGLVQAGGSLRLSCAASGSTFRRYAMGWSRQAPGKERELVASISRSGGSTYYADSVKGRFTISRDNAKNTVYLQMNSLKPEDTAVYYCAKKPYKSAYDYSSAYDYWGQGTQVTVSS,high polyreactivity
9,QVQLVESVGGLVQAGGSLRLSCAASGSTFSSNAMGWYRQAPGKERELVAAINRTGNTYYADSVKGRFTISRDNAKNTVYLQMNSLKPEDTAVYYCNTDLNLYRGGGYWGQGTQVTVSS,low polyreactivity
10,QVQLVESVGGLVQAGGSLRLSCAASGSTFYGYAMGWYRQAPGKETELVAAINWSGGSTFYADSVKGRFTISRDNAKNTVYLKMNSLKPEDTAVYYCNKAWRGSVSRRYYYWGQGTQVTVSS,high polyreactivity
11,QVQLVESVGGLVQAGGSLRLSCAASGSTFYNNAMGWYRQAPGKERELVAAISSGGGTYYADSVKGRFTISRDNAMNTVYLQMNSLKPEDTAVYYCAADFANTTHWGRIKRNDYWGQGTQVTVSS,low polyreactivity
12,QVQLVESVGGLVQAGGSLRLSCAASGSTLFYNAMGWYRQAPGKERELVATISGGGVSTYYADSVKGRFTISRDNAKNSVYLQMNSLNPEDTAVYYCAAAGWSEGGYDYWGQGTQVTVSS,low polyreactivity
13,QVQLVESVGGLVQAGGSLRLSCAASGYIFDRNAMGWYRQAPGKERELVAAITKRGGITYYADSVKGRFTISRDNAKNTVYLQMNSLKPEDTAVYYCNALARSSRYDYWGQGTQVTVSS,low polyreactivity
14,QVQLVESVGGLVQAGGSLRLSCAASGYTFYLYAMGWYRQAPGKERELVAAISYSSGGTYYADSVKGRFTISRDNAKNTVYLQMNSLKPEDTAVYYCAADAYDGEGTYPFEYWGQGTQVTVSS,low polyreactivity
15,QVQLVESVGGLVQAGGSLRLSCDASGSIFASYAMGGYRQAPGKERELVAAISTSGVSTHYADSVNGRFTISRENAKNTVYLQLNSLKQEDTAVYYCAATPGYKRYYWGQGTQVTVSS,high polyreactivity
16,QVQLVESVGGLVQAGGSLRLSCGSSGSIFPYNAMGWYRQAPGKERELVATISSGGSTNYADSVKGRFTISRDNAKNTFYLQMNSLKPEDTAFYYCAADVIVFYYAPNYCGDIEYGYWGQGTQVTVSS,low polyreactivity
17,QVQLVESVGGLVQAGGSLRLSCSASGRTFAFYAMGWYRQAPGKVRELVASISSTGDRTYYADSVKGRFTISRDNAKNTVYLQMNSLIPEDTAVYYCAARWRYTYYYWGQGTQVTVSS,high polyreactivity
18,QVQLVESVGGLVQAGGSLRLSFAASGSTFDVYAMGWYRQAPGKERELVAAIRSSGGSTFYADSVKGRFTISRDNAKNIVYLQMNSLNPEDTAVYYCAARSFVVSGYNKYYEYGYWGQGTQVTVSS,low polyreactivity
19,QVQLVESVGGLVQAGGSLRLSSAASGFTFTRNTMGWYRQAPGKERELVAAITRGGSTNYADSVKGRFTISLDTAKNPVYLQMHSLKPEDTAVYYCAADAPFDSPYNYWGQGTQVTVSS,low polyreactivity
20,QVQLVESVGGLVQAGGSLRLSSAASGRIFVFNAMGWYRQAPGKERELVAAISRRGGSTYYADSVKGRFTISRDNAKNTVYLQMNSLNPEVTAVYYCAAVYPDYSSARYDYWGQGTQVTVSS,high polyreactivity
21,QVQLVESVGGLVQAGGSLRLTCAASGIILHDNTMGWYRQAPGKEREVVAAITSDGSTNYADSVKGRFTISRDNAKNTVYLQMNSLKPEDTAVYYCNTDDGPYTEFDYWGQGTQVTVSS,low polyreactivity
22,QVQLVESVGGLVQAGGSLRLTCAASGLILRRYAMGWYRQAPGKEELVAAITSDASTYYADSVKGRFTISRYNAKNTVYLQMNSLKPEDPAVYYCAADTYDNDYYYWGQGTQVTVSS,high polyreactivity

row,Sequence,polyreactivity (PSR sort gate)
1,QVQLVESVGGLVQAGGSLRLTCVASGRIFLTYAMGWYRQAPGKERELVAAISYSGASTYYADSVKGRFTISRDNAKNTVYLQMNSLKPEDTAVYYCATERVGTPRMNYWGQGTQVTVSS,high polyreactivity
2,QVQLVESVGGLVQARGSLRLICAASVRIIRGNAMGWYRQAPGKERELVAAISRRSGSTYYADSVKGRFTISRDNAKNTVYLQMISLKPEDTAVYYCAATCSLGDFRYDYWGQGTQVSVSS,high polyreactivity
3,QVQLVESVGGLVQEGGSLRLICAASGSIFYTYAMGWYRQAPGKERELVAAIRSTGRTNYADSVKGRFTISRDNAKNTVYLHMNSLKPEDTGVYYCAAGTNYGKLRIRFDYWGQGTQVTVSS,low polyreactivity
4,QVQLVESVGRLVQAGGSLRLSCAASGSTITPNAMGWYRQAPGKERELVAAINWSGTSTYYADSVKGRFTISRDNEKNTVYLQMNSLKQEDTAVYSCAASYPDVDYDYWGHGTQVTVSS,high polyreactivity
5,QVQLVESVGVLVKAGGSLRLSCAASGRIYSSYALGWYRQAPGKEREFVAYISNSGGSTYYADSVKGRFTISRDNAKNTVYLQMNILKPEDTAVYYCAAAVYSYTYRYYYWGQGTQLTVSS,high polyreactivity
6,QVQLVESVRGLFQAGGSLRLSCAASGFTFYIYDMGWYRQAPGTERELVAAITWSGGRTYYADSVKGRFTISRDNAKNTVYFQMNSLKPEDTAVYYCAASYPGLSFHKYEYWGQGTQLTVSS,high polyreactivity
7,QVQLVESVVGLVQAGGSLRLSCAASGRIFFAYTMGWYRQAPGKERELVAAISSSGSTYYADSVKGRFTISRDNAKNTVYLQMNSLKPEDTAVYYLRVQRRAYRYDYWGQGTKVTVSS,high polyreactivity
8,QVQLVESVVGLVQAGLSLRLSSAASGSIFSGYMGWYRHAPGKERELVATITSGGSTYADSVKGRFTISRDNAKNTVYLQMNSLKPEDTAVYYCAADVSFYTSKYDYWGLGTQVTVSS,low polyreactivity
9,QVQLVESVVGLVQAGVSLRLSCAASGFIVYANAMGWYRQAPGKERELVAAISRGTSTYYADSVKGRFTISRDNAKNTVYLQMTSLKPEDTAVYYCATYYYRPWGGYYWGQGTQVTVSS,high polyreactivity
10,QVQLVESWAGIVQAGGSLRVSCAASGSTFDRYAMGWYRQAPGKERELVAAISWSAGRTYYADSVKGRFTISRDNAKNTVYLQMNSLKPDDTAVYYCAADQIVSGTYDYYWGQGTHVTVSS,low polyreactivity
11,QVQLVESWEGLVQAGGRLRLSCAASGSIFRPYTMGWYRQAPGKERELVATISSTGITNYADSVKGRFTISRDNAKITVYLQMNSLKPEVTAVYYCAAGLWFSYDYWGQGTQVTVSS,high polyreactivity
12,QVQLVESWGGLDQAGGSLRLSCAASGRNLYWNTMGWYRQPPGKETQLVASITQNVGSTYYADSVKGRFTISRDFAKNTVYLQMNSLKPEDTAVYDCAAKRLYWLRYGYWGQGTQDTVSS,low polyreactivity
13,QVQLVESWGGLFQAGGSLRLSCAASGSIFVWYAMGRSRQAPGKEMELVAVISYGGDRTSYADSVKGRFTISRDNAKNTVYLQMNSLKPEDTAVYYCAARPFYRGYYYWGQGTQVTVSS,high polyreactivity
14,QVQLVESWGGLVQAGCSLRLRCAASGRIFGPYAMGWYRQARGQERELVAAISRSGGSTYYADSVKGRFTISRDNAKNTVYLQMKSLNPEDTAVYYCNARFVIYSRVDYWGQGTQVTVSS,low polyreactivity
15,QVQLVESWGGLVQAGGSLRLSCAASGFTFTWYAMGWSRQAPGKERELLAAITSSGGSTYYADSVKGRFTISRDNAKNTVYLQMNSLKPEDTAVYYCAAKSYWSGYFVGYEYWGQGTQVTVSS,high polyreactivity
16,QVQLVESWGGLVQAGGSLRLSCAASGGTFSANAMGWYRQAPGKERELVAAISTSGGSTHYADSVKGRFTISRDSAKNTVYLQMNSLNPEDTAVYYCAARLYSYRRQYGYWGHGTQVTVSS,high polyreactivity
17,QVQLVESWGGLVQAGGSLRLSCAASGINFQNYDMGWYRQAPGKERELVAAINGSGGSTYYADSVKGRFTISRDNANNTVYLQMNSLKPEDTAVYYCNAVWEYYGKSDYWGQGTQVTVSS,low polyreactivity
18,QVQLVESWGGLVQAGGSLRLSCAASGITFDGYDMGWYRQAPGKERELVATIDSGGITYYADSVKGRFTISRDNAKNTVYLQMNSLKPEDTAVYYCNADEWYYNFDIVEFDYWGQGTQVTVSS,low polyreactivity
19,QVQLVESWGGLVQAGGSLRLSCAASGLIFYYNAMAWYRQAPGKERELVAAISRRGGGTYYADSVKGRFTISRDNAKNTVYLLMNSLKPEDTAVYYCAAGSPFSPGKYDYWGQGTQVSVSS,high polyreactivity
20,QVQLVESWGGLVQAGGSLRLSCAASGLTFETYVMGRYRQAPGKEREFVAAISSSGRTYYADSVKGRFTISRDNAKNTVYLQMNSLKPEDTAFYYCAARGREFGYWGQGTQVTVSS,high polyreactivity
21,QVQLVESWGGLVQAGGSLRLSCAASGMGRYRQAPGKERELVAAINWSGGNTYYADSVKGRFTISRDNAKNTVYLQMNSLIPEDTAVDYCNAVVWVEVPGDYWGQGTQVTVSS,low polyreactivity
